± gives the standard deviation of the averaged measurements.
What follows are sequences tested on Saccharomyces cerevisiae (assay: protein stability index of tFT-peptide fusion (C-terminal peptide) (PSI (0-1 scale)); higher = more stable (slower turnover)). Conditions: genetic background: cdc53-1; temperature: 37 C.
Method: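 MPS profiling in S. cerevisiae of the tFT-X12 degron library: putative degron peptides plus stable controls, 12 aa, fused to the C-terminus of a sfGFP-mCherry timer. Cells are FACS-sorted into 8 mCherry/sfGFP bins and deep-sequenced. PSI runs from 0 (unstable) to 1 (stable). Backgrounds are wild type, das1Δ and doa10Δ at 30 °C, and wild type, das1Δ, cdc34-1 and cdc53-1 at 37 °C; 2-3 technical replicates each.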
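Further: PSI is a weighted mean of sequencing reads over stability bins, variants kept only with over 10 reads, mCherry proximal and sfGFP distal, peptide attached via GGGS linker.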

Sequence | protein stability index
FLIFGMVDFAVV | 0.3554 ± 0.0029
FLIFVVIGGVGL | 0.395 ± 0.016
FLLELRFTCSYS | 0.454 ± 0.021
FLLFFVLRLLPC | 0.293 ± 0.03
FLPGEAVFVYCR | 0.616 ± 0.037
FLSVGFSCSFVC | 0.676 ± 0.034
FLSVLPLFAFFA | 0.658 ± 0.045
FLVCTFCRWVWL | 0.6 ± 0.039
FLVFPLLIQFFL | 0.303 ± 0.015
FPLGAQTWLCLS | 0.714 ± 0.012
FPLPPPGSPPPL | 0.7381 ± 0.0033
FRFFYLPVSVVA | 0.0356 ± 0.0058
FRHKLSLGLVIV | 0.555 ± 0.073
FRYLRPAFLLLH | 0.255 ± 0.029
FSALAPTPLLPL | 0.7533 ± 0.0046
FSFCFCFPLSSL | 0.683 ± 0.053
FSPSPVFVTCRV | 0.255 ± 0.013
FTRLDYKRIKIV | 0.625 ± 0.15
FVEFCFWCFWVV | 0.575 ± 0.032
FVICGMLVHWMV | 0.536 ± 0.084
FVLLCVLEFVAG | 0.166 ± 0.011
FVVFLLFFMLYH | 0.428 ± 0.019
FVVFYFFLLFGV | 0.379 ± 0.0099
FVVVCWFWGGGF | 0.406 ± 0.0042
FWMLCFLCRLTV | 0.338 ± 0.0098
FWVNFLFVLFIL | 0.233 ± 0.018

Sequence | protein stability index
FYACRLWLVSVR | 0.196 ± 0.011
GACRVSSCVVVC | 0.548 ± 0.024
GAFAGDVWRCVV | 0.755 ± 0.02
GALWVLGVVVGG | 0.505 ± 0.0085
GAVRRWGWVSFV | 0.7476 ± 0.0049
GAVVYGICFCTN | 0.617 ± 0.0081
GCLVVVGFFSVF | 0.416 ± 0.041
GCVLVFFLRLDL | 0.538 ± 0.067
GFALGSFMLVLR | 0.0469 ± 0.019
GFCFVFVFQCFF | 0.451 ± 0.034
GFFFLFFVSAFI | 0.4553 ± 0.0027
GFFFYFVLFGLS | 0.409 ± 0.0011
GFISKLIIKLAA | 0.566 ± 0.032
GFVLMLLVRFEL | 0.416 ± 0.0054
GGFRVLLWCVVW | 0.3237 ± 0.0018
GGGEGVVWVRLG | 0.72 ± 0.011
GGGWCEMLIVVG | 0.512 ± 0.026
GGRFVWIVRAVG | 0.727 ± 0.017
GGRHYGILDLSL | 0.708 ± 0.013
GGVSPRSSMDLL | 0.764 ± 0.01
GGVWVLGVAVVW | 0.132 ± 0.029
GGWSFSSLWKIA | 0.817 ± 0.015
GIGVVWLDVFKT | 0.499 ± 0.024
GIKLNVVYILLG | 0.544 ± 0.025
GKHILLISLNIT | 0.395 ± 0.067
GKVSSFVLFHIS | 0.761 ± 0.033

Sequence | protein stability index
GLAVLSWLYIEL | 0.57162 ± 0.00039
GLCFRVCIWVFV | 0.284 ± 0.024
GLGWLLFVVERV | 0.499 ± 0.046
GLSLLLLWFKVC | 0.36 ± 0.0093
GLSVFFFVGFIF | 0.452 ± 0.033
GLVSCWIDPSMA | 0.77 ± 0.032
GPCRPWIVVYAG | 0.595 ± 0.042
GPWVIFSHLLLT | 0.49 ± 0.017
GRFGVGVVFRLA | 0.72 ± 0.016
GRGRGGRWGRLC | 0.739 ± 0.016
GRLRLGVLCGGV | 0.661 ± 0.014
GRVFSSFFLYIS | 0.0556 ± 0.0033
GRVYLLGLYMSF | 0.485 ± 0.026
GSLGHCWFLFGV | 0.538 ± 0.011
GSLHVISVVGML | 0.709 ± 0.019
GSVLWISCLIFC | 0.267 ± 0.0085
GTHWARLGWLLA | 0.711 ± 0.036
GVAFGLLVWLLG | 0.509 ± 0.014
GVGAISLGFSWL | 0.763 ± 0.013
GWLRHGWWRTVG | 0.709 ± 0.0069
GWMLVVWCGVFG | 0.235 ± 0.0027
GYAFPPPHRVRT | 0.7419 ± 0.0073
GYLVFTLRWLRG | 0.491 ± 0.035
GYTVYARRLIMC | 0.265 ± 0.008
GYVVYRRYILIR | 0.0546 ± 0.03
HCSRMIIIFLFL | 0.425 ± 0.042

Same assay, conditions: genetic background: das1 deletion; temperature: 30 C

Sequence | protein stability index
FLIFGMVDFAVV | 0.231 ± 0.04
FLIFVVIGGVGL | 0.281 ± 0.027
FLLELRFTCSYS | 0.407 ± 0.014
FLLFFVLRLLPC | 0.236 ± 0.035
FLPGEAVFVYCR | 0.372 ± 0.026
FLSVGFSCSFVC | 0.599 ± 0.06
FLSVLPLFAFFA | 0.552 ± 0.025
FLVCTFCRWVWL | 0.448 ± 0.028
FLVFPLLIQFFL | 0.356 ± 0.04
FPLGAQTWLCLS | 0.609 ± 0.018
FPLPPPGSPPPL | 0.6712 ± 0.0062
FRFFYLPVSVVA | 0.146 ± 0.036
FRHKLSLGLVIV | 0.396 ± 0.029
FRYLRPAFLLLH | 0.355 ± 0.027
FSALAPTPLLPL | 0.672 ± 0.029
FSFCFCFPLSSL | 0.528 ± 0.018
FSPSPVFVTCRV | 0.208 ± 0.047
FTRLDYKRIKIV | 0.62 ± 0.017
FVEFCFWCFWVV | 0.407 ± 0.012
FVICGMLVHWMV | 0.376 ± 0.028
FVLLCVLEFVAG | 0.173 ± 0.025
FVVFLLFFMLYH | 0.317 ± 0.048
FVVFYFFLLFGV | 0.298 ± 0.034
FVVVCWFWGGGF | 0.283 ± 0.036
FWMLCFLCRLTV | 0.306 ± 0.043
FWVNFLFVLFIL | 0.261 ± 0.036

Sequence | protein stability index
FYACRLWLVSVR | 0.191 ± 0.023
GACRVSSCVVVC | 0.37 ± 0.032
GAFAGDVWRCVV | 0.653 ± 0.025
GALWVLGVVVGG | 0.365 ± 0.026
GAVRRWGWVSFV | 0.6425 ± 0.0039
GAVVYGICFCTN | 0.388 ± 0.031
GCLVVVGFFSVF | 0.255 ± 0.028
GCVLVFFLRLDL | 0.354 ± 0.034
GFALGSFMLVLR | 0.0861 ± 0.012
GFCFVFVFQCFF | 0.288 ± 0.031
GFFFLFFVSAFI | 0.327 ± 0.034
GFFFYFVLFGLS | 0.29 ± 0.015
GFISKLIIKLAA | 0.43 ± 0.025
GFVLMLLVRFEL | 0.309 ± 0.031
GGFRVLLWCVVW | 0.214 ± 0.041
GGGEGVVWVRLG | 0.637 ± 0.0046
GGGWCEMLIVVG | 0.358 ± 0.029
GGRFVWIVRAVG | 0.611 ± 0.021
GGRHYGILDLSL | 0.677 ± 0.019
GGVSPRSSMDLL | 0.646 ± 0.023
GGVWVLGVAVVW | 0.246 ± 0.019
GGWSFSSLWKIA | 0.765 ± 0.038
GIGVVWLDVFKT | 0.321 ± 0.035
GIKLNVVYILLG | 0.377 ± 0.03
GKHILLISLNIT | 0.252 ± 0.045
GKVSSFVLFHIS | 0.622 ± 0.031

Sequence | protein stability index
GLAVLSWLYIEL | 0.457 ± 0.031
GLCFRVCIWVFV | 0.206 ± 0.025
GLGWLLFVVERV | 0.359 ± 0.037
GLSLLLLWFKVC | 0.307 ± 0.027
GLSVFFFVGFIF | 0.339 ± 0.022
GLVSCWIDPSMA | 0.635 ± 0.0088
GPCRPWIVVYAG | 0.357 ± 0.034
GPWVIFSHLLLT | 0.405 ± 0.017
GRFGVGVVFRLA | 0.637 ± 0.028
GRGRGGRWGRLC | 0.646 ± 0.0085
GRLRLGVLCGGV | 0.469 ± 0.021
GRVFSSFFLYIS | 0.112 ± 0.011
GRVYLLGLYMSF | 0.306 ± 0.083
GSLGHCWFLFGV | 0.539 ± 0.022
GSLHVISVVGML | 0.592 ± 0.016
GSVLWISCLIFC | 0.189 ± 0.035
GTHWARLGWLLA | 0.619 ± 0.019
GVAFGLLVWLLG | 0.357 ± 0.026
GVGAISLGFSWL | 0.658 ± 0.019
GWLRHGWWRTVG | 0.658 ± 0.024
GWMLVVWCGVFG | 0.216 ± 0.035
GYAFPPPHRVRT | 0.669 ± 0.023
GYLVFTLRWLRG | 0.343 ± 0.027
GYTVYARRLIMC | 0.236 ± 0.024
GYVVYRRYILIR | 0.111 ± 0.017
HCSRMIIIFLFL | 0.276 ± 0.045
